Article PMC12653191 (Journal of Fungi, 2025)

Target: T1, Candida glabrata Pbn1 (C. glabrata ATCC 2001, UniProt Q6FX62 1-416, N-glycosylation at N35, N319 and N365)
T1 construct: Pbn1, auxiliary subunit of GPI mannosyltransferase I, Candida glabrata ATCC 2001, UniProt Q6FX62, full length (416 amino acids); residues 2-408 are modelled in the structure; also called auxiliary subunit of GPI-MT-I; source: S. cerevisiae INVSc1, co-expressed with Gpi14, purified (Strep-Tactin, SEC); not shown: Twin-Strep II, N-terminal, kept
T1 sequence (looked up): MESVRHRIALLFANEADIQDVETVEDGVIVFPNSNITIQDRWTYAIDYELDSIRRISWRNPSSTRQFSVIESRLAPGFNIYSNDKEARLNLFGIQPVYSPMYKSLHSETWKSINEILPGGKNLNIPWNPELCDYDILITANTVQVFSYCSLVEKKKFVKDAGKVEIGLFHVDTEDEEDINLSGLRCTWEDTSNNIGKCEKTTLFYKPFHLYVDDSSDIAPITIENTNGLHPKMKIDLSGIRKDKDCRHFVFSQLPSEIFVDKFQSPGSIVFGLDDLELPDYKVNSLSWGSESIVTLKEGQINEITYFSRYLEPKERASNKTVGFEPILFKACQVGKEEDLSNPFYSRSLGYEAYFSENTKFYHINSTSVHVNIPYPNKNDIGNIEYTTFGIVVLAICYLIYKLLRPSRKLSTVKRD
Experiment: cryo-EM structure; Gpi14-Pbn1 complex co-expressed in S. cerevisiae, purified by Strep-Tactin on Pbn1 and SEC in 20 mM Hepes pH 7.4, 150 mM NaCl, 0.02% GDN; ~22 mg/mL; endogenous Dol-P-Man bound
Conditions: both partners purified

B1: Candida glabrata Gpi14 (enzyme, C. glabrata ATCC 2001, UniProt Q6FXQ5 1-431, looked up)
chain: MFKLGTIGLLSLAVLLRIAFFLFGVYQDEHFTVKYTDIDYQVFNDAAWFVAHRKSPYNRDTYRYTPLLSWLLLPNHMIPWFHFGKLIFVLCDLATGVLILQMLKKLKSKYRYGTDRMTIMAAIWLLNPMVITISTRGNAESVLCFLILSFLYCFLCEQYLLGGLLFGLSIHFKIYPIIYALPIAIYVAAAHYNKTQSVFKSSFKLFLVGFSTLIVLILLTVFMYMLYGDKFIDQTYLYHIYRTDHRHNFSVWNMLLYFNSALPKTSELSKFVFLPQMIIVLAISLTQLRRPSSFPLLCNVLFLETFAFVTFNKVCTSQYFIWYLIFLPFVLYNTRISMRRGIVMLVVWVATQALWLRQGYLLEFEGQNVFYPGLFCASVGFFVSNAWILGQFIEDTIIQNDYVYRIEPSESRSKDSAVIDKPAIAKTEKAE
notes: Gpi14, GPI mannosyltransferase I catalytic subunit, Candida glabrata ATCC 2001, UniProt Q6FXQ5, full length (431 amino acids); residues 2-408 are modelled in the structure; also called catalytic subunit of GPI-MT-I; source: S. cerevisiae INVSc1, co-expressed with Pbn1, purified (Strep-Tactin via Pbn1, SEC)
stoichiometry N: 1
